Measured values: IntAct's records for PubMed 35512704

B1: Speckle-type POZ protein (Homo sapiens), O43791 (parent)
chain: MSRVPSPPPPAEMSSGPVAESWCYTQIKVVKFSYMWTINNFSFCREEMGEVIKSSTFSSGANDKLKWCLRVNPKGLDEESKDYLSLYLLLVSCPKSEVRAKFKFSILNAKGEETKAMESQRAYRFVQGKDWGFKKFIRRDFLLDEANGLLPDDKLTLFCEVSVVQDSVNISGQNTMNMVKVPECRLADELGGLWENSRFTDCCLCVAGQEFQAHKAILAARSPVFSAMFEHEMEESKKNRVEINDVEPEVFKEMMCFIYTGKAPNLDKMADDLLAAADKYALERLKVMCEDALCSNLSVENAAEILILADLHSADQLKTQAVDFINYHASDVLETSGWKSMVVSHPHLVAEAYRSLASAQCPFLGPPRKRLKQS
partner: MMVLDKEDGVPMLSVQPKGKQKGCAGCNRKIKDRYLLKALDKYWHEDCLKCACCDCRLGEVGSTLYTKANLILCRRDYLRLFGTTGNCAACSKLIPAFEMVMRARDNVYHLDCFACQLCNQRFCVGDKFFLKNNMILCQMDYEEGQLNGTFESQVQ
B2: Speckle-type POZ protein (Homo sapiens), O43791 (parent)
chain: B1 chain
partner: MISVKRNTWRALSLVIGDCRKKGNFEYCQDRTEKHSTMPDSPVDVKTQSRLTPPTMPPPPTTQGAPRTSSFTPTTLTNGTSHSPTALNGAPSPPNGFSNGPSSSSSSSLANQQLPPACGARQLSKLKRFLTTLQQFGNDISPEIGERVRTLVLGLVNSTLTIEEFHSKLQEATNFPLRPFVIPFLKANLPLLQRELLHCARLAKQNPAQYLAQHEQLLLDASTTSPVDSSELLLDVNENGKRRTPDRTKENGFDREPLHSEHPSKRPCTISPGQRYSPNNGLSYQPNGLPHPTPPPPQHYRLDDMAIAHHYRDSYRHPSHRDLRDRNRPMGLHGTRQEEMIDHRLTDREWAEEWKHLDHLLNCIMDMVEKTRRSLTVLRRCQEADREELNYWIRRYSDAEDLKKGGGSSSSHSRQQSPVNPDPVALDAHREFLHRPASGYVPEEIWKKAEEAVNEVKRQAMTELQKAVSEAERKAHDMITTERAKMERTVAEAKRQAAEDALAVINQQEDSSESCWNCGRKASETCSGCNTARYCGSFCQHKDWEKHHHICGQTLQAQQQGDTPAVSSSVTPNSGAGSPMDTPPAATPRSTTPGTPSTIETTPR
B3: Speckle-type POZ protein (Homo sapiens), O43791 (parent)
chain: B1 chain
partner: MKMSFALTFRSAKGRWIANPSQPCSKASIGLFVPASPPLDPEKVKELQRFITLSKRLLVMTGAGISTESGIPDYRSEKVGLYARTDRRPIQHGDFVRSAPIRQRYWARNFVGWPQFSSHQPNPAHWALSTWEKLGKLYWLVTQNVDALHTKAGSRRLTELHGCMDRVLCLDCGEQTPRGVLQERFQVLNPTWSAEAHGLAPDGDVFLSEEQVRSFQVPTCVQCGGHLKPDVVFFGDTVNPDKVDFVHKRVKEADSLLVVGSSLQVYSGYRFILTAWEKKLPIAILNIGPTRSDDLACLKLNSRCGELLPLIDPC
B4: Speckle-type POZ protein (Homo sapiens), O43791 (parent)
chain: B1 chain
partner: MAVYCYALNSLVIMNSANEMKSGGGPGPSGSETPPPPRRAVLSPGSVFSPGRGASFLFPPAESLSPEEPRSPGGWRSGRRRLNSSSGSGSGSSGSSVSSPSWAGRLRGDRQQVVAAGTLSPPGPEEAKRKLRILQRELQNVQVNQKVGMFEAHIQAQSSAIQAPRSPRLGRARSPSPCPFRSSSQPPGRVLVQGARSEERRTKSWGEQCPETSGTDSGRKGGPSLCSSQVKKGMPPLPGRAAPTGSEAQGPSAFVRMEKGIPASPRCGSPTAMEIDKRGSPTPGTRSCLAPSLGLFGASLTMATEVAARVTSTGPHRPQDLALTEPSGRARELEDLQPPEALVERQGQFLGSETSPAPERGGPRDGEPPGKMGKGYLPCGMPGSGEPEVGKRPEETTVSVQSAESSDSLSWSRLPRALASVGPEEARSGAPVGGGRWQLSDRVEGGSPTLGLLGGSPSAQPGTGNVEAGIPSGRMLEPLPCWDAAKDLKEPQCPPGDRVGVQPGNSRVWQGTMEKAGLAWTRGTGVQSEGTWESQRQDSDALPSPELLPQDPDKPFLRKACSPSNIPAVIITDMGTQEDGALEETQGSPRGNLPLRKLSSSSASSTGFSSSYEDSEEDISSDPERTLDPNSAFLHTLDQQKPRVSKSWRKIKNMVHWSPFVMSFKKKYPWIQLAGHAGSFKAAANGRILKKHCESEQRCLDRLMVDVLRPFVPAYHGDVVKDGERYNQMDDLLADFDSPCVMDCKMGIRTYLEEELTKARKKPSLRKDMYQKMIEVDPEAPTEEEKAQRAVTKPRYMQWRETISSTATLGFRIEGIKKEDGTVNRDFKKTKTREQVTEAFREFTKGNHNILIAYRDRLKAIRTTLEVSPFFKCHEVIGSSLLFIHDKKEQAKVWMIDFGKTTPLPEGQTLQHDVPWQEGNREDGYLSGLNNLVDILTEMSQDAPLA
B5: Speckle-type POZ protein (Homo sapiens), O43791 (parent)
chain: B1 chain
partner: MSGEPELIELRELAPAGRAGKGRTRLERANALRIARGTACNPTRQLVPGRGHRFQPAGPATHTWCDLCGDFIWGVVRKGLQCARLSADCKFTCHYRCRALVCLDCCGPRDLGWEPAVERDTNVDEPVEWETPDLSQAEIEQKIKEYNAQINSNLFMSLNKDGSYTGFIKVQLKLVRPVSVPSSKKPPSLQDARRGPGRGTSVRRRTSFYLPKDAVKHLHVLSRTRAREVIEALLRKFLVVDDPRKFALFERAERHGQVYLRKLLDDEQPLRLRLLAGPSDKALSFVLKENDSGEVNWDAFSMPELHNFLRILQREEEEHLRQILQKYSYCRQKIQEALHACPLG
B6: Speckle-type POZ protein (Homo sapiens), O43791 (parent)
chain: B1 chain
partner: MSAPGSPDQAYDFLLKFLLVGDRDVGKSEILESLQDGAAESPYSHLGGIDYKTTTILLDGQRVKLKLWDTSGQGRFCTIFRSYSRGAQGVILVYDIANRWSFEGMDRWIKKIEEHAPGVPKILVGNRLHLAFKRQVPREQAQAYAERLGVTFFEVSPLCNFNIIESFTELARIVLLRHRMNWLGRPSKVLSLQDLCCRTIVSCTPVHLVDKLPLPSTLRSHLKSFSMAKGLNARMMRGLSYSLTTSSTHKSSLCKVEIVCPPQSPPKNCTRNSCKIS

Variants of: B1
Details: with rbtn1_human LMO1, P25800

Variant | effect of a mutation on the interaction
F133L | with no effect

Variants of: B1
Details: with rbtn1_human LMO1, P25800
Remark: another data set of the same source

Variant | effect of a mutation on the interaction
Y87C | with no effect

Variants of: B2
Details: with mtg8_human RUNX1T1, Q06455

Variant | effect of a mutation on the interaction
F133V | with no effect

Variants of: B2
Details: with mtg8_human RUNX1T1, Q06455
Remark: another data set of the same source

Variant | effect of a mutation on the interaction
F133V | disrupting interaction strength
F133L | disrupting interaction strength
F102C | disrupting interaction strength
Y87C | disrupting interaction strength

Variants of: B2
Details: with mtg8_human RUNX1T1, Q06455
Remark: another data set of the same source

Variant | effect of a mutation on the interaction
F133L | with no effect

Variants of: B2
Details: with mtg8_human RUNX1T1, Q06455
Remark: another data set of the same source

Variant | effect of a mutation on the interaction
F102C | with no effect

Variants of: B2
Details: with mtg8_human RUNX1T1, Q06455
Remark: another data set of the same source

Variant | effect of a mutation on the interaction
Y87C | with no effect

Variants of: B3
Details: with sir4_human SIRT4, Q9Y6E7

Variant | effect of a mutation on the interaction
F133V | with no effect

Variants of: B3
Details: with sir4_human SIRT4, Q9Y6E7
Remark: another data set of the same source

Variant | effect of a mutation on the interaction
F133L | with no effect

Variants of: B3
Details: with sir4_human SIRT4, Q9Y6E7
Remark: another data set of the same source

Variant | effect of a mutation on the interaction
F102C | with no effect

Variants of: B3
Details: with sir4_human SIRT4, Q9Y6E7
Remark: another data set of the same source

Variant | effect of a mutation on the interaction
Y87C | with no effect

Variants of: B4
Details: with ip3kb_human ITPKB

Variant | effect of a mutation on the interaction
F102C | with no effect

Variants of: B4
Details: with ip3kb_human ITPKB
Remark: another data set of the same source

Variant | effect of a mutation on the interaction
F133L | with no effect

Variants of: B4
Details: with ip3kb_human ITPKB
Remark: another data set of the same source

Variant | effect of a mutation on the interaction
F133V | with no effect

Variants of: B4
Details: with ip3kb_human ITPKB
Remark: another data set of the same source

Variant | effect of a mutation on the interaction
Y87C | with no effect

Variants of: B5
Details: with rasf1_human RASSF1, Q9NS23

Variant | effect of a mutation on the interaction
Y87C | with no effect

Variants of: B5
Details: with rasf1_human RASSF1, Q9NS23
Remark: another data set of the same source

Variant | effect of a mutation on the interaction
F133V | with no effect

Variants of: B5
Details: with rasf1_human RASSF1, Q9NS23
Remark: another data set of the same source

Variant | effect of a mutation on the interaction
F133L | with no effect

Variants of: B5
Details: with rasf1_human RASSF1, Q9NS23
Remark: another data set of the same source

Variant | effect of a mutation on the interaction
F102C | with no effect

Variants of: B6
Details: with rb40a_human RAB40A

Variant | effect of a mutation on the interaction
Y87C | with no effect
